Test results reported in IntAct's records for PubMed 18256688.

B1: Regulator of nonsense transcripts 1 (Homo sapiens), Q92900 (parent)
chain: MSVEAYGPSSQTLTFLDTEEAELLGADTQGSEFEFTDFTLPSQTQTPPGGPGGPGGGGAGGPGGAGAGAAAGQLDAQVGPEGILQNGAVDDSVAKTSQLLAELNFEEDEEDTYYTKDLPIHACSYCGIHDPACVVYCNTSKKWFCNGRGNTSGSHIVNHLVRAKCKEVTLHKDGPLGETVLECYNCGCRNVFLLGFIPAKADSVVVLLCRQPCASQSSLKDINWDSSQWQPLIQDRCFLSWLVKIPSEQEQLRARQITAQQINKLEELWKENPSATLEDLEKPGVDEEPQHVLLRYEDAYQYQNIFGPLVKLEADYDKKLKESQTQDNITVRWDLGLNKKRIAYFTLPKTDSGNEDLVIIWLRDMRLMQGDEICLRYKGDLAPLWKGIGHVIKVPDNYGDEIAIELRSSVGAPVEVTHNFQVDFVWKSTSFDRMQSALKTFAVDETSVSGYIYHKLLGHEVEDVIIKCQLPKRFTAQGLPDLNHSQVYAVKTVLQRPLSLIQGPPGTGKTVTSATIVYHLARQGNGPVLVCAPSNIAVDQLTEKIHQTGLKVVRLCAKSREAIDSPVSFLALHNQIRNMDSMPELQKLQQLKDETGELSSADEKRYRALKRTAERELLMNADVICCTCVGAGDPRLAKMQFRSILIDESTQATEPECMVPVVLGAKQLILVGDHCQLGPVVMCKKAAKAGLSQSLFERLVVLGIRPIRLQVQYRMHPALSAFPSNIFYEGSLQNGVTAADRVKKGFDFQWPQPDKPMFFYVTQGQEEIASSGTSYLNRTEAANVEKITTKLLKAGAKPDQIGIITPYEGQRSYLVQYMQFSGSLHTKLYQEVEIASVDAFQGREKDFIILSCVRANEHQGIGFLNDPRRLNVALTRARYGVIIVGNPKALSKQPLWNHLLNYYKEQKVLVEGPLNNLRESLMQFSKPRKLVNTINPGARFMTTAMYDAREAIIPGSVYDRSSQGRPSSMYFQTHDQIGMISAGPSHVAAMNIPIPFNLVMPPMPPPGYFGQANGPAAGRGTPKGKTGRGGRQKNRFGLPGPSQTNLPNSQASQDVASQPFSQGALTQGYISMSQPSQMSQPGLSQPELSQDSYLGDEFKSQIDVALSQDSTYQGERAYQHGGVTGLSQY

Variants of: B1
Details: with rent2_human UPF2, Q9HAU5
rent2_human UPF2, Q9HAU5, sequence (Q9HAU5 whole entry): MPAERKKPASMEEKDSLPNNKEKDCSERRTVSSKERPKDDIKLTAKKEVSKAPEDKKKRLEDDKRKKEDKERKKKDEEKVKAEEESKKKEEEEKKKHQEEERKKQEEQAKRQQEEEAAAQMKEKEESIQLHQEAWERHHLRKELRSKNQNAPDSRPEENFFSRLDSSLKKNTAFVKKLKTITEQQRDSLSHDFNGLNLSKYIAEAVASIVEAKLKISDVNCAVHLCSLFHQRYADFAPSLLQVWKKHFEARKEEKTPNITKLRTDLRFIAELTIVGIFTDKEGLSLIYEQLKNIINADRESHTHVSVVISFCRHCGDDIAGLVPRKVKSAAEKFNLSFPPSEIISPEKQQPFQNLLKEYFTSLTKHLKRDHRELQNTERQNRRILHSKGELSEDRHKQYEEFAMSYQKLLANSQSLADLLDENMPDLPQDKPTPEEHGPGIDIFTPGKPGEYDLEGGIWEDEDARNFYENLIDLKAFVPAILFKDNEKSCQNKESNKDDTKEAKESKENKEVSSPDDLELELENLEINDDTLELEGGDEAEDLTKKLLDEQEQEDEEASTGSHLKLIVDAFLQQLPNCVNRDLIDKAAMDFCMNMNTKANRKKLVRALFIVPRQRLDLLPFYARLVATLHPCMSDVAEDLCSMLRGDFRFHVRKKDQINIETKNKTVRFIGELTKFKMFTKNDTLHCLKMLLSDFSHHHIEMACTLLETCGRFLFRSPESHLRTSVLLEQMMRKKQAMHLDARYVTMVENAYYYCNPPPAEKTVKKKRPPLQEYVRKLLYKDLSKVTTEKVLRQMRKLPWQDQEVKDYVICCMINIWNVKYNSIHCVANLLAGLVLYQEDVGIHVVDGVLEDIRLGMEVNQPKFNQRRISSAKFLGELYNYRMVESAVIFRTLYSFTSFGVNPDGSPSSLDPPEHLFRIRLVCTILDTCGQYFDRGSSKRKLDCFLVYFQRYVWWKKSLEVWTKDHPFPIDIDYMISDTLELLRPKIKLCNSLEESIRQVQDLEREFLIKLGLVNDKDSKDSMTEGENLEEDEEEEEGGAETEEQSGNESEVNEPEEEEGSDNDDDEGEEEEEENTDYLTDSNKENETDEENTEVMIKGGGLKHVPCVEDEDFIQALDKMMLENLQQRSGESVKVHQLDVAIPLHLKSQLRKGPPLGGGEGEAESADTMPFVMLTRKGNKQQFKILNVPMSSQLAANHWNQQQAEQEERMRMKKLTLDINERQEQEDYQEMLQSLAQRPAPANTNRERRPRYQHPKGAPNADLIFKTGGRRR

Variant | effect of a mutation on the interaction
C183V | disrupting interaction
L181V | disrupting interaction
Y184D | disrupting interaction
E182R | disrupting interaction

Variants of: B1
Details: with rent2_human UPF2, Q9HAU5
Remark: another data set of the same source

Variant | effect of a mutation on the interaction
V204D | disrupting interaction
V205I | disrupting interaction

Variants of: B1
Details: with rent2_human UPF2, Q9HAU5
Remark: another data set of the same source

Variant | effect of a mutation on the interaction
C126S | disrupting interaction
